Experimental data reported in the RNAGym collection of RNA variant scans (doi:10.1073/pnas.2313332121).

B1: TPR t1 (parent)
chain: GACCAAUCUGCCCUCAGAGCUCGAGAACAUCUUCGGAUGCAGAGGAGGCAGGCUUCGGUGGCGCGAUAGCGCCAACGUCCUCAACCUCCAAUGCAUCCCACCACAUGAUGAUGCCUGAAGAGCCUUGGUUUUUUG

Variants of: B1
Test: polymerase ribozyme fitness, log enrichment relative to wild type (log ratio); higher = more active; in vitro selection for triplet polymerase activity
Summary of the method: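 Fitness is a logarithmic measure of how a genotype enriched relative to the wild type, with replicate averages weighted by inverse variance. The logarithm uses base 2, and enrichment came from Illumina sequencing of input and output libraries. Those libraries were PCR-built, transcribed mutants of each subunit of a heterodimeric triplet polymerase ribozyme, passed through one triplicate in vitro selection round that included frozen incubation at −7 °C, gel excision of extended constructs and streptavidin-bead capture. Genotypes were kept only if they had ≥10 input reads and ≥1 read per output.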

Row | Variant | polymerase ribozyme fitness (log ratio)
1 | C62G C104A | -4.04
2 | C62G C104U | -1.52
3 | G61U U81G | -2.74
4 | G61U C115U | -0.433
5 | G61U C115A | 0.264
6 | C62U A105U | -2.19
7 | G61U U126A | -1.86
8 | G61C U81A | -3.2
9 | G61C G93C | -3.2
10 | G61U U78G C94A U129A | -2.72
11 | C62A C88A | -2.76
12 | C62A C88U | -2.23
13 | G61U C88G | -1.3
14 | G61U C88A | -1.18
15 | G61U C104A | -1.7
16 | C62U A121G U125C | -0.0117
17 | G61U C101G U106A | 0.513
18 | C62A U81C C82A C98U | -4.18
19 | C62G U126C | -2.05
20 | C62U U81C C94U U96C C114A | -2.82
21 | C62G A95G | -1.49

Row | Variant | polymerase ribozyme fitness (log ratio)
22 | C62U U92G C99A C124U U131C | -5.96
23 | C62U C99U | -3.59
24 | C62A G120U G122C | -1.92
25 | G61U C114U | -0.943
26 | C62U C86G | -0.606
27 | G61U C79A C102U | -3.26
28 | C62U C94A | -1.69
29 | C62U G113C | -2.79
30 | C62U G113U | -3.01
31 | C62A C79U C82A A111C | -0.967
32 | G61U G107C | -4.98
33 | C62A C86A C98U | -3.12
34 | G61U A74C C123G | -5.28
35 | C62U A95U A105U | -3.17
36 | C62U C97U | -0.489
37 | C62U C97G | -4.18
38 | C62G C82A | -1.67
39 | C62U U112A | 1.02
40 | C62U U112G | -0.737
41 | C62G G113A C114G A121U | -4.27
42 | G61U C101U | 0.0554

Row | Variant | polymerase ribozyme fitness (log ratio)
43 | G61U C101A | -1.33
44 | G61U U96G | -0.881
45 | C62G C70A C85A C98U C124U | -6.66
46 | G61C G135U | -2.53
47 | C62G C86A C99U C101U A121G G122U | -5.18
48 | C62G A90G C97U A111C | -1.19
49 | C62U C73U U81G A84C G113A | -3.57
50 | C62G U78C C79G A111G | -3.51
51 | C62U U131C | 0.107
52 | C62G C114U U116A | -5.69
53 | C62U U92C U116C A119G | 0.218
54 | G61U G117C U131C | -3.82
55 | G61C C114U G127U | -5.3
56 | C62A A119C C123U | -2.98
57 | G61U U92G U126A U129G | -5.18
58 | G61U G110A | -0.469
59 | C62U C79U | -0.282
60 | G61U C102A | -2.05
61 | C62A U130C | -1.71
62 | G61U U92G | -2.97
63 | C62U A90C | -2.52

Row | Variant | polymerase ribozyme fitness (log ratio)
64 | C62G C102U G120U | -5.14
65 | C62A U87A | -1.8
66 | G61U G77A | -0.736
67 | C62U A119G | 0.565
68 | G61U G122A | -0.264
69 | C62U G110A | -1.23
70 | C62A C79U C89G U130A | -3.65
71 | C62U U78C C101G A118G U133A | -2.5
72 | C62A U87A U92A U116C | -6.88
73 | C62U G128U | -1.78
74 | G61U C82G A100C G113U | -5.11
75 | G61U U131A | -0.736
76 | C62A G77U U78A A119U G128C | -5.16
77 | G61C G113A | -2.26
78 | G61C G113C | -3.19
79 | G61C G107U | -7.35
80 | G61U C124U | 1.52
81 | G61C U96A | -2.71
82 | C62U C82U C124A | 1.29
83 | C62A C104A G113A | -4.4
84 | C62A C72G G120U U129G | -3.88
